± gives the uncertainty stated by the source.
Assay: self-splicing fitness, log relative to wild type (ln ratio); higher = more splicing; Tetrahymena group I intron in knt gene, E. coli kanamycin selection, DiMSum; sequences stand for … in CUCUCU…GGAGGGAAAAGUUAUCAGGCAUGCACCUGGUAGCUAGUCUUUAAACCAAUAGAUUGCAUCGGUUUAAAAGGCAAGACCGUCAAAUUGCGGGAAAGGGGUCAACAGCCGUUCAGUACCAAGUCUCAGGGGAAACUUUGAGAUGGCCUUGCAAAGGGUAUGGUAAUAAGCUGACGGACAUGGUCCUAACCACGCAGCCAAGUCCUAAGUCAACAGAUCUUCUGUUGAUAUGGAUGCAGUUCACAGACUAAAUGUCGGUCGGGGAAGAUGUAUUCUUCUCAUAAGAUAUAGUCGGACCUCUCCUUAAUGGGAGCUAGCGGAUGAAGUGAUGCAACACUGGAGCCGCUGGGAACUAAUUUGUAUGCGAAAGUAUAUUGAUUAGUUUUGGAGUACUCGUGGUCG
Procedure, shortened: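 DiMSum derived fitness as the error-weighted combination of fold changes across replicates, kanamycin versus no kanamycin, normalised to wild type. E. coli BL21(DE3) held the library, which randomised all eight P1ex-region intron nucleotides within the knt kanamycin-resistance gene on pET-22b(+). Six replicate transformations grew overnight at 37°C or 30°C on LB agar with or without 25 μg/mL kanamycin, also containing 100 μg/mL carbenicillin, 50 μM IPTG and 0.2% rhamnose, and pooled colonies were amplicon-sequenced on an Illumina HiSeq 2500.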

Sequence | self-splicing fitness (ln) (30 °C) | self-splicing fitness (ln) (37 °C)
UGAAAGCAAUAUUACGAGGG | -2.91 ± 0.17 | -3.6 ± 0.42
AUCAAGCAAUAUUACGUGUG | -1.57 ± 0.069 | -1.32 ± 0.071
UAGUAGCAAUAUUACGUGUA | -3.16 ± 0.21 | -0.527 ± 0.12
CUACAGCAAUAUUACGCAGU | -3.78 ± 0.24 | -2.32 ± 0.22
CCGUAGCAAUAUUACGUUCG | -0.619 ± 0.066 | 0.0526 ± 0.095
ACAUAGCAAUAUUACGUCAA | -3.99 ± 0.21 | -1.63 ± 0.11
GGUAAGCAAUAUUACGACUA | 0.407 ± 0.12 | -0.574 ± 0.12
GCGAAGCAAUAUUACGAACG | -1.63 ± 0.16 | -0.889 ± 0.21
GGCAAGCAAUAUUACGGUUG | -1.16 ± 0.063 | -0.62 ± 0.083
AGCGAGCAAUAUUACGCCUG | -3.09 ± 0.3 | -2.24 ± 0.36
UAUGAGCAAUAUUACGAGCU | -2.71 ± 0.2 | -2.09 ± 0.42
AGGCAGCAAUAUUACGAAAU | -1.8 ± 0.13 | -1.34 ± 0.15
AAGGAGCAAUAUUACGUCGA | -1.74 ± 0.2 | -1.89 ± 0.2
AUUUAGCAAUAUUACGCAGG | -3.36 ± 0.38 | –
UUAUAGCAAUAUUACGUCCG | -1.64 ± 0.17 | -1 ± 0.17
UCGUAGCAAUAUUACGACGA | -3.15 ± 0.3 | -0.365 ± 0.11
UAUUAGCAAUAUUACGGCUA | -0.404 ± 0.15 | 0.399 ± 0.14
UUGAAGCAAUAUUACGGUGU | -3.13 ± 0.17 | -1.16 ± 0.15
UCUAAGCAAUAUUACGUGCA | -1.2 ± 0.12 | -0.538 ± 0.13
ACGCAGCAAUAUUACGUCAA | -3.09 ± 0.2 | -2.57 ± 0.15

Sequence | self-splicing fitness (ln) (30 °C) | self-splicing fitness (ln) (37 °C)
UGACAGCAAUAUUACGCCAC | -3.66 ± 0.32 | -1.43 ± 0.27
GGGGAGCAAUAUUACGAACG | – | -1.11 ± 0.36
AGGGAGCAAUAUUACGCUGU | -2.11 ± 0.26 | -3.01 ± 0.47
GUGAAGCAAUAUUACGCGCA | -0.00454 ± 0.099 | 0.509 ± 0.13
UACAAGCAAUAUUACGUGCC | -2.49 ± 0.15 | -1.53 ± 0.14
UGUAAGCAAUAUUACGCCUC | -3.28 ± 0.32 | -2.25 ± 0.24
AUGCAGCAAUAUUACGUCAC | – | -1.09 ± 0.16
CUCGAGCAAUAUUACGCAUU | -3.59 ± 0.3 | –
UCAUAGCAAUAUUACGUUAU | -3.05 ± 0.14 | -2.21 ± 0.16
UCCCAGCAAUAUUACGUCGG | -2.16 ± 0.13 | -2.59 ± 0.23
UAUGAGCAAUAUUACGGUCA | -2.22 ± 0.25 | -1.65 ± 0.25
AGGGAGCAAUAUUACGUACC | -2.86 ± 0.33 | -1.52 ± 0.29
UUGUAGCAAUAUUACGGACU | -1.65 ± 0.14 | -0.723 ± 0.16
AGAAAGCAAUAUUACGCCCC | -0.22 ± 0.36 | –
CUACAGCAAUAUUACGACGU | -4.63 ± 0.23 | -3.03 ± 0.2
CGUGAGCAAUAUUACGAGAG | -2.29 ± 0.25 | -2.64 ± 0.36
CCCUAGCAAUAUUACGUUGA | -3.23 ± 0.19 | -2.83 ± 0.23
AGUGAGCAAUAUUACGGCAA | -2.12 ± 0.21 | -0.889 ± 0.2
AAUGAGCAAUAUUACGGUCA | -1.92 ± 0.28 | -1.45 ± 0.36

From the supplement of paper PMC7877785
